Measurements reported in PMC10772735, “Characterization of erythroferrone oligomerization and its impact on BMP antagonism” (The Journal of Biological Chemistry, 2023).

B1: N-terminally flag-tagged hERFE (residues 44–354), WT erythroferrone [human] / BMP6 [not stated] (parent)
chain 1: PPPGNELPRGPGESRAGPAARPPEPTAERAHSVDPRDAWMLFVRQSDKGVNGKKRSRGKAKKLKFGLPGPPGPPGPQGPPGPIIPPEALLKEFQLLLKGAVRQRERAEPEPCTCGPAGPVAASLAPVSATAGEDDDDVVGDVLALLAAPLAPGPRAPRVEAAFLCRLRRDALVERRALHELGVYYLPDAEGAFRRGPGLNLTSGQYRAPVAGFYALAATLHVALGEPPRRGPPRPRDHLRLLICIQSRCQRNASLEAIMGLESSSELFTISVNGVLYLQMGQWTSVFLDNASGCSLTVRSGSHFSAVLLGV
chain 2: SASSRRRQQSRNRSTQSQDVARVSSASDYNSSELKTACRKHELYVSFQDLGWQDWIIAPKGYAANYCDGECSFPLNAHMNATNHAIVQTLVHLMNPEYVPKPCCAPTKLNAISVLYFDDNSNVILKKYRNMVVRACGCH

Variants of: B1
Assay: SPR competition (BMP6 + ERFE over Alk3-Fc captured on protein A chip)
Settings: curve maximum near the ~300 s dotted line, RU is residual BMP6 binding to Alk3-Fc (lower RU = more competition by ERFE), read off a plot

response (with BMP6, 10 nM BMP6 + 80 nM W82A ERFE) [RU]	response (with BMP6, 10 nM BMP6 + 160 nM W82A ERFE) [RU]	response (with BMP6, 10 nM BMP6 + 80 nM F85A ERFE) [RU]	response (with BMP6, 10 nM BMP6 + 160 nM F85A ERFE) [RU]	Variant
12	10			chain 1 PPPGNELPRGPGESRAGPAARPPEPTAERAHSVDPRDAAMLFVRQSDKGVNGKKRSRGKAKKLKFGLPGPPGPPGPQGPPGPIIPPEALLKEFQLLLKGAVRQRERAEPEPCTCGPAGPVAASLAPVSATAGEDDDDVVGDVLALLAAPLAPGPRAPRVEAAFLCRLRRDALVERRALHELGVYYLPDAEGAFRRGPGLNLTSGQYRAPVAGFYALAATLHVALGEPPRRGPPRPRDHLRLLICIQSRCQRNASLEAIMGLESSSELFTISVNGVLYLQMGQWTSVFLDNASGCSLTVRSGSHFSAVLLGV [chain 1 W39A]
		12	11	chain 1 PPPGNELPRGPGESRAGPAARPPEPTAERAHSVDPRDAWMLAVRQSDKGVNGKKRSRGKAKKLKFGLPGPPGPPGPQGPPGPIIPPEALLKEFQLLLKGAVRQRERAEPEPCTCGPAGPVAASLAPVSATAGEDDDDVVGDVLALLAAPLAPGPRAPRVEAAFLCRLRRDALVERRALHELGVYYLPDAEGAFRRGPGLNLTSGQYRAPVAGFYALAATLHVALGEPPRRGPPRPRDHLRLLICIQSRCQRNASLEAIMGLESSSELFTISVNGVLYLQMGQWTSVFLDNASGCSLTVRSGSHFSAVLLGV [chain 1 F42A]
